Results published in paper PMC2814086 (Molecular Microbiology, 2009).

Target: the molecule itself
Test: mass spectrometry

B1: MinE-His (wild-type MinE with a His tag, plasmid pSOT13 [PT7::minE-his]) (natural protein, E. coli, UniProt P0A734 1-88, looked up)
chain: MALLDFFLSRKKNTANIAKERLQIIVAERRRSDAEPHYLPQLRKDILEVICKYVQIDPEMVTVQLEQKDGDISILELNVTLPEAEELK
- stoichiometry N: 2
